Measured values reported in the DeepSol protein solubility set.

Assay: soluble on expression in E. coli; label from the status in PepcDB or PDB records

Sequence	soluble on expression in E. coli
MGSDKIHHHHHHMKESLRILHINDLHSHFEAYPKIKRFFAEHSKTQREVLRFDIGDNVDKSHPLTDVSAGRVNVDLMNDLGIDFATIGNNEGIGLAKAEINQLYHKADFQVILGNLRDKKGRPTWAQPYVIYETKAGTKLALLAYTFPYYWTYVPNGWQVLDAISSLKKDLENPEVAAADFRILLSHLGIRLDEKIARQVPEIDLIIGAHTHHVFEEGEVVNGTYLAAAGRYGDHVGQIDLDFEDHSLTNIAIEAVPTSDLDSEKEDAAFVAHLFEEGEKLLAENLICKLSRQPSLKECADLVMEAMKKSAAADLAIINTGLVVEPFSQNLTKADLHKSLPHQMRLVKFQVTQTELLEICHDIFSQADLLANQQIRGMGFRGKQFGKVVTSGFTYKNGKIVYNNKAIGRKDKMSLVLVDQYYFAPYFNSLTSRKGQLLFPDLLRQTVEKYLRGDL	not soluble
MGSDKIHHHHHHMKFPGQRKSKHYFPVKNRDPLLAQLTLQPQHISTHISGIDQTLVDIEAKVGDDLLSRYALPKGNSTLIDDEKAHQLYTELKSSELISDEFAGGTIGNTVHNYSILADDRSVLFGVMSNHIEVGSYAYRYLCNTSSKVDLNFLQPVDGPIGRCFTLISECGERTFAISKGSMDKLTPEYIDQEIVQTSSALVLTAYLMRASGGDKITDAALKAIEYAKAADVPVVLTLGTRFLIEEDPQWWIDFIKENVTILAMNEDEGEALTGFKDPLSASNAALEWCDMVLTTAGPLGLYTAGYTEDSEKRETSHTLLPGAIPEFNRYEFSRPKLKRDCQTPIKVFAHISPYMGGPEIIRNTNGAGDGALAALLHDLASNTYHKANVPGSSKHKRDGLCYSSFSQICKYANRVAYEVLAQHSPRLSRGLPEREDSLEEAYWER	not soluble
MGSDKIHHHHHHMKGIDVSSYQGTIAWGKVKWAGVQFAILKIIRKDLNPDKTFEQNWQGCTEAGMPIQGVYNYSYATTTEKAKTDAKRVIEVLAGRKTFVWLDVEDRCQQGLGQTLIDIINTYQSEIKTAGLEFGVYTGLSFYNTYILPYANQINCPFWIARYPSTKGMTIGDDPNDAKKPAIAHSLYGWQYTSAFTCSGLNNSTDANLLYVELGTKDTTAASQPVSAPVKPNNESWKGDIDYYLESEEVRKWQHAMNVGFDLKGADALKEDGKFGADSQAFAKSHNLWNGQKHYCPTAIKWLRRTLHDVYSFTKLDTDYKEWSDYLSKCVMVFQKNRGLTQDARVGLLTTYRLLKG	not soluble
MGSDKIHHHHHHMKGQLFVICGPSGAGKTSIIKEVLKRLDNVVFSVSCTTRPKRPHEEDGKDYFFITEEEFLKRVERGEFLEWARVHGHLYGTLRSFVESHINEGKDVVLDIDVQGALSVKKKYSNTVFIYVAPPSYADLRERILKRGTEKEADVLVRLENAKWELMFMDEFDYIVVNENLEDAVEMVVSIVRSERAKVTRNQDKIERFKMEVKGWKKL	not soluble
MGSDKIHHHHHHMKHAFLIIAHNEYPVLEVLLSMLDDERNDIYLHIDKRATELFQQIKKVKMQKAGFYLIENPIKVYWGDISQVQVEYLLFETALSHGPYAYYHLLSGTDLPIKSQDYIHAFFQQNAGKEFVGFWQDAAHQRDLERKVFRYYFFTKRLKDKEHLLHGITALIRNLILAVQKISHYRRKQTFEFKKGGNWISITENAVKYLLQYKEIVLNRMKYTLCADEIFIQTILWNSPFRERMHCTNNANTGSMREIDWEHGSPYIWQDHDYQTLINSNKIFARKFNSNQMGVVYKIQKLYLKQVPK	not soluble
MGSDKIHHHHHHMKHTLLIKDWLYSFLSLWFPRCCVVCGGSLAKGEECICTMCNINLPRTDYHLRKDNPVEKLFWGKFPLERATSFFFYRKGSDFRQVLHQLKYGGQKEIGAIMGRYMASELQASDFFHGVDVIIPIPLHKKKQQIRGYNQSEWISRGIMAVTGIPVDTEAIIRRKNTETQTQKSALERWENVDGIFELHRSEYLAGKHILIVDDVLTTGATTVACASRLAEIEGVRISVLTLAMAE	not soluble
MGSDKIHHHHHHMKIARLNLWHVPLTSHTAYYMADGKTCDTVETVVIAVQTDTGITGWGEVCPIPHYLPAYARGVAPALTELAPVILGADPVGVGALMERVDAVLHGHPYAKSALDIALWDITGQVAGLPLHALLGGWRAADMPLYHSITCIAPDDMARIAREAQAQGITQFQVKLGASGDWQTDVERLAKVREAVGPGPLVYGDWNCGATSLEAIRVGRAVAQLDIMLEQPCATLEDCARVQRATGLPMKIDELAHDTASLLTAHRLGIMDAVALKLSKFGGLSTTRRARDLCLHLGARMCIEDTWGSDITTAALLHLGAASEPGRVLNVCDLSGYVAPRLAPDAPVRANGRIAPPEGAGLGITVDRGALGVPDLILD	not soluble
MGSDKIHHHHHHMKIAVTGKGGVGKSTIVGMLARALSDEGWRVMAIDADPDANLASAIGVPAERLSALLPISKMTGLARERTGASETTGTHFILNPRVDDIPEQFCVDHAGIKLLLMGTVNHAGSGCVCPEHALVRTLLRHILTKRKECVLIDMEAGIEHFGRGTIEAVDLLVIVIEPGSRSLQTAAQIEGLARDLGIKTICHIANKLASPVDVGFILDRADQFDLLGSIPFDSAIQAADQAGLSCYDLSPACRDKAHALMAALLERVGPTQGVS	not soluble
MGSDKIHHHHHHMKIDDKTGLVLEGGGMRGVFTCGVLDYMMDKKVWFPYGVGVSAGACNGLSYMSRQRGRAKFSNIDLLEKYHYIGIKHLWRKHSILDQELLYEHFPKEILPYDYKTYAENPARFEMVTTNCITGRACYLEEKHDPRRIIAIAKASSSLPYVCPIAYVDGEPMLDGGIVDSIPVLRAIEQGFDKNVVVLTRNRGYRKKGKDMKIPHFIYKKYPRLRVVLSKRCRIYNEQLDLVEQLEDKGRIVVIRPEKPMEVDRIETDIKKLTDLYEEGYACAKKMFEEKRILQK	not soluble
MGSDKIHHHHHHMKIGAVLTREQVISARYVHHGLLTPFPDPLVAAQRLAGVQAQILPAAGLALWNRVAGFSADQLEHLLYHERSLVRLWGQRGTLHLYAMTDWPLVYGMQAGQATYWEQEAQRDGWAVDEYEAFIARVGDLLYEHETLGRSDLRRLLPAIDQRHLSGWGGVFAILTRRGLACHAAPRGGEARMTHRLRWRPDLVWEPPDTDTANAEMLRRYLAVFGPVRLVDMTCWRGRTQAEMKRWLALIGEEVVRVSVDGQPAWWLQSYLDRLADLPTPADLPPHLLGRFDPLLLGTRDKSWLIDADVYNRVWRPAGHIEATMLVHGRIAGTWRYDWRGSSIVVTLRPFKPLPPSERIRIESLAAGVAEHFAAPLGDCRWEAVA	not soluble
MGSDKIHHHHHHMKIGVIQASTRTDLNQLLFEAVKQAAGNQHEIVNFGVFPQETENYSYVEVAIMISLLIETGAIDFMVSGCSSGQGMMMACNSLPGLQAGFIQTPQDAFLFGRINNGNVASLSLGLNFGWAGELNLQYALNELFHGEFGIGYPPEVAERKREEAQLLLTLNDITKKSFLEIIDQLDKALLFKILKRKDLTAYLFDYGSNSLLLERLQFFRN	not soluble
MGSDKIHHHHHHMKIKCIITDDEPIARKGLRGYIEKVDFLTLTGECEDAVQLNTILKTQEIDLLFLDIEMPEMTGIELLSNLTNPPKVIIVSAYEQYALKGYEFNVVDYLLKPVSFDRFIKSVNKIYDLLQTEQKEKNDYIFVKSNKLLKKILFKDILYIESMENYVVIQTVSCKEVVYTTLKQLNDSLPKDVFQQTHRSYIVNLEKVTAIDGNQLTLSSYKIPVARTFRDSIFNLILNNRLIIKS	not soluble
MGSDKIHHHHHHMKILFVAPGWPRGRLWGELGFKFPSLALAALAAVTPPEWDAALCDESRETIDFNAPCDLVAITAMTPQAPRAYEIAAGFRARGKTVVMGGFHASNLPDEALGHVDAVVVGEGELSWPLLLADFQAGRLQRLYRSPGLLPMASIPVARREIFAGKGYLLTNTLQTTRGCPFDCEFCSVTAFYGRKYRERPVEAVLAELETLRKANSFAFFVDDNLVADRRYALPLFRGMKGMGFKWLSHAPIDFAGDEELMRAAGESGCIGMFVGFESLDQEALAAMGKVTNSSSAFLDQARKFRDHGIGILGSFVLGYDGDTPDSFGRILRFCEEARIEAAIFPILTPYPGTAVRRRLEAEGRITSNDWRDYDMGHVTFRPTGMTARELQDGHDWLNRSFYSFGSMWRRIGKLHRSVQVFGPMNLGFRSAIRKSDKTKAS	not soluble
